For one experiment, the target named is T1, CCT.
T1 construct: Take 20S mouse testis sucrose gradient fractions enriched in CCT; from tissue; host or cells: mouse testis, 20S sucrose gradient fractions
The experiment is described as follows: CCT binding to immobilised actin peptide array (Pepset pins, MAb 91a ELISA, absorbance 410 nm). The note with it: FIG. 9; mouse testis CCT. The source says: Peptides of 15 amino acids in length were synthesised on polyethylene pins mounted on blocks according to the method of Maeji et al (Maeji N. J. et al, 1994) and commercially available under the trade name of Pepsets™ from Chiron Mimotopes. The sequence of the peptides were such that they defined the full length of the actin sequence with a 5 amino acid overlap between the sequential peptides, and selected peptides representing key known structures in actin (Table 2 annotated). The peptides are synthesised on polyethylene pins which are presented to be compatible with standard 96 well microtitre plates. The pins become the solid phase on which interactions with CCT complexes can be probed. The method is described below. • 1. Take Pepset pins from storage at −20(° C.) and equilibrate at room temperature. • 2. Wash pins with PBS for 10 minutes at room temperature on a shaking table. • 3. Incubate pins with blocking buffer (2% w/v BSA 0.1% Tween 20 in PBS) for 60 minutes at room temperature on a shaker. • 4. Wash pins with PBS for 10 minutes at room temperature on a shaker (times 1) • 5. […] Remove pins from the microtitre plate and read the microtitre plate at 410 nm on a Dynatech ELISA plate reader. • 16. Results are expressed as a 410 nm absorbance reading for each well corresponding to each unique substrate peptide from the actin molecule. […]

The target of experiment [1] is T2, CCT (chaperonin containing TCP-1) complex from mouse testis (mouse, UniProt P11983 1-556; P80314 2-535; P80318 1-545; P80315 1-539; P80316 2-541; P80317 …).
T2 construct: Hetero-oligomer: eight different subunits in each of two rings (double toroid, about 920 kDa), enriched from mouse testis 20S sucrose gradient fractions; Testis also holds CCTζ2; also called CCT complex; intact CCT
The experiment is described as follows: biotinylated peptide with CCT in solution, 6% native PAGE, blot probed with streptavidin/Neutravidin-HRP.

* marks the point of attachment. Biotin = O=C1N[C@H]2[C@H](CS[C@H]2CCCCC(=O)*)N1

GGTTMYPGIADRMQK [substrate peptide 61]: the “CCT binding to immobilised substrate peptide (410 nm absorbance reading)” value with CCT is listed as “new protein interaction site”.

B1: peptide 8.6, biotin-SGSG-AAAAAQGVMVGMGQK (peptide)
peptide: Biotin-SGSGAAAAAQGVMVGMGQK-NH2
SMILES: CSCC[C@H](NC(=O)CNC(=O)[C@@H](NC(=O)[C@H](CCSC)NC(=O)[C@@H](NC(=O)CNC(=O)[C@H](CCC(N)=O)NC(=O)[C@H](C)NC(=O)[C@H](C)NC(=O)[C@H](C)NC(=O)[C@H](C)NC(=O)[C@H](C)NC(=O)CNC(=O)[C@H](CO)NC(=O)CNC(=O)[C@H](CO)NC(=O)CCCC[C@@H]1SC[C@@H]2NC(=O)N[C@@H]21)C(C)C)C(C)C)C(=O)NCC(=O)N[C@@H](CCC(N)=O)C(=O)N[C@@H](CCCCN)C(N)=O
notes: All five core residues replaced by alanine
As for B1, the binding result in experiment [1] is “no binding (tested: peptide 13.3 µM or 1.33 µM, CCT 70 nM)”.
